Experiment: label from the status in PepcDB records

Sequence	protein production
MLGMGVFKQLIKGLYEWLLHSIDVATQHLVAIVLKISVVKYLIKEFHDRFIYFIDLIAQHFIIVALSSFLVLVFGVLIGVLVFYNSKARAFLLPVVNFLYTIPSLALFALFIPVIGVGLKNALLVLVLYGLLPIVHSTYNALKEVREEVIKAAIGLGCNPKELFFKVRFLLAIPQILAGLRIAVVMLVAMAGIGALIGAGGLGQAIFRGLNTQNTTLLVAGSLIIALFSVLADKFVSVFQHENALQRLFSQNATKKQKRRVYTNLAVFLFLLLASALWLIPRNAIEEKPLVVATKPSSEQYILGEILSLLLEKHHIPIKRAFGIGGGTMNIHPALIRGDFDLYVEYTGTAWVNTLKNPLTQKVDFETIKKRYEKEFNLLWVGLLGFNNTYSLAISKEDAQKYAIETFSDLAFHSPNFDFGAEFDFFEREDAFKGLVKAYRFHFRSLHEMDINLRYKSFESHKINALDVFTTDAQIKELDLKVLKDDKGFFPNYQAGIVIRKEIVKKYPEALEILEKLDSKISDEKMQDLNYQVEVLKKSPQIVAKDFLERLGL	failed
MQTNEHEHVIEVTDLRRVYGGGFEAVRGIDFSVRRGEVFALLGTNGAGKTSTVELLEGLAAPAGGRVRVLGHDPYTERAAVRPRTGVMLQEGGFPSELTVAETARMWAGCVSGARPPAEVLALVGLEAKSGTRVKQLSGGQRRRLDLALALLGDPEVLFLDEPSTGLDAEGRRDTWELVGALRDQGTTVLLTTHYLEEAEHLADRLAIMHDGRIAATGTPAEVTAAQPSHISFELPDGYFVGDLPPLAELGVSDHETDGRTVKLRTRELQRAATGLLVWAAQAAVELRRLDVRSASLEEAFLSIAKQVSARSDGTATDTTEKEYAA	failed
PDVSVQEMVSAYTTFVNKGIRVNPLPITRIEDQYGNVVAQFSPNMVEVLPPDAAYKMLYMLKSVVDGGTGSRLRYRYGFKLDMGGKTGTTQNNSD	failed
MTVETFHPKQTTTLETPAKTLEAASADSVNTGNVATGNRIGFVSLGCPKNLVDSERILTQLRIDGYEVTNSYDNADLVIVNTCGFIDAAVEESLDAVREALEENGKVIVTGCLGAKENQIREVHPDVLEITGPHSYEAVLKHVHKYVPKPEHNPFTSLIPQTGVKLTPKHYAYLKISEGCDNRCTFCIIPALRGDLDSRGAGSVLDEAKRLVEAGVQEILVVSQDTSAYGKDKGGRTDFWNGMPVKQDITSLARQLGKMGAWVRLHYIYPYPWVDDLIPLMAEGLILPYLDIPMQHASPRILKMMKRPGRVDRQLEAIQRWREICPDLVIRSTFIVGFPGETEEDFEMLLDFLREARLDRVGCFKYSEVEGAVANTIAELISEEVKEDRYHRFMEVQAEISAERLARFVGRTMDILIDDVDEEGAIGRSFADAPEIDGMVFINGETELEPGMLVRAVITHSDEHDLWAELVDADAEDEVEALEHHHHHH	not failed
VYPLELTLEEIFHGCLKKVAHKRKVLLFSGEYVEEERQLTVDVKPGLPTGTRFVFEGEGNKTPKKEPGPVVFVLKPKPHPRFVRRGSDLVHKVTLPLHHALIGTTLDIRTLDDRDLKVPISDIMRPGSSLTVPGEGMPLPATPSARGNLVIEIDLLFPTHLTETQKMLLRSAF	not failed
MTHVRIVMVNTTLPANIGSALRAMKTMGLSQLVLVAPKTYPHPDIDALAAGAQDLVEKIKIVDTLEQAIQDCHIVFGTSARSRTIPWPLLDARPAAELSMDAVITRQQEIAIVFGREDRGLTNEELALANYHLTIPVNTDYGVLNVAQAIQVICYEMRMATLAQVQNDQASSDSQKMQVTEKIEMDWDEPLVNHQQMEEFYPHLEKMLVDIEFLDPQNPRLLPLRLRRLFGRAQLDRMEYHLLRGIFSRVQALSHGKWKKTALDKEEQSDV	failed
MLIEIPNVFSKQEVSHLREQLDARRWIDGNQTSGAMATTRKRNQQLDKDDPVAVALGQQIMDRLLAHPQFVSAALPLQFYPPLFNRYQGGETFGYHIDNAIRSTPDGMIRTDLSATLFLSEPENYQGGELVIQDTYGQQSIKLSAGSLVLYPSSSLHQVTPVLSGERTAAFMWLQSMVRDEGQRRLLFQLDQSIQSLTAQTAAEQELFNLSGVYHNLLRRWSEL	not failed
MIIETERLLLRPFNEQDVDALYLMNSNPAMLKYIPTAPFTDREQARELFHNVILQDYQQRGFGRWAVEHKADNRVIGFCGPKFIPEFNEVEIGYRYFPEYWGKGIGTEAAEAALSVFPQFGIKQTIALILEGNLGSETVAKRVGMYWREHSEFMGHK	failed
MSKLIFSVLISVYYNESISYFKKSLDSILYQTLLPAEVVLVKDGILTDDLNCIVKEYSQKYPILKVISLPVNQGLGKALNEGLKHCSYDLVARMDTDDIAKPDRFEKQIRVFQEHPELDVVGAWIDEFEETTSNIISTRKLPEVHDDICQFAKKRNPENHPVIMFRKQAVLAAGGYQHFPLFEDYYLWIRMLQNGAKFYNIQESLLYFRFSPAMFKRRGGLKYVTTELRFQNQLRNLGFITSSEYLYNVFIRVITRMMPNTLRAILYKKALRK	failed
MDKRIVGTNAGKVWCALKEIGEISIPELARRLNLSVESTALAAGWLARENKICIQRKNGLIALSDESAFPFSFG	failed
LLHGDFELAVPGGPVAAYYAAPAGREQLPIVLVVQEIFGLHEHIKDVCRRLAHDGYLAVSVNLYQRQGDASRYDNIPGLVAELVSKVPDEQVHADLDASLAWAAAHGGDGARVGVTGFCWGGRTTWMYAARNPAVKAGVAWYGRLSSGHGPLIKQVPLDVAGSLHAPVLGLYGGKDESIPLDDVRAMEARLQQGGAPAQASRIVVYPQAGHAFLADYRPSYRAADAQDGWRRMLDWFALYL	not failed
MTGVSDIQEAVAQIKAAGPSKPRLARDPVNQPMINNWVEAIGDRNPIYVDDAAARAAGHPGIVAPPAMIQVWTMMGLGGVRPKDDPLGPIIKLFDDAGYIGVVATNCEQTYHRYLLPGEQVSISAELGDVVGPKQTALGEGWFINQHIVWQVGDEDVAEMNWRILKFKPAGSPSSVPDDLDPDAMMRPSSSRDTAFFWDGVKAHELRIQRLADGSLRHPPVPAVWQDKSVPINYVVSSGRGTVFSFVVHHAPKVPGRTVPFVIALVELEEGVRMLGELRGADPARVAIGMPVRATYIDFPDWSLYAWEPDE	failed
MDHVHKSTTTDEDERNSGRAIDRHNPIIKDGRRSFADDFIKLPTSAEDGEMSNKKLEIYKGRRSITGRRSTGGGGGGGAAALLKLITNDIGLARKSFSCVARPACDLIKTPVGSTRYLLGSDPDSITGSVDQDPAKTVEAEAPAGEDKTLTEKKTTCGDTDQVSCFVVSIMSGINVNKW	failed
MLQIADYIAENYRGKVVEVGIGRFTAVAELLARRGFEVFATDVVERRAPEGCRFYVDDVTKPNLKIYEGASLIYSLRPPPELFSAIVEVSRKVGADCLIKPLYGDYMEARIVNYKGAQFYLIRRENYD	failed
MLPVSTSVQRSTRQQKITYLYNRNEQSNKKAVTMKTTTTETSIPEEKTTSARIQAYSKSQLAALYLPHIQPASARRTLRSWIAKNTELQAALARSGYTGKAILLTPAQVGLFFRFLGEP	failed
MDSEKALELVKHGATLLFLDVPQYTLVGIDTQIFAVGPAFKGIKMIPPGIHFVFYSSSTRDGREFSPTIGFFVDVAPSQVIVRKWNQQDEWLTKVSEEEEERYSQAVRSLEFDKNLGPYNLKQYGEWRHLSNYITKDVVEKFEPVGGEITVTYESAILKGGPKTAMEIALDTQMKKSKFTTSSTEQPKGNRFYYTSIPRIIKHKGMSGQELTSMNLDKTQLLESVLSKEYKDSEDLLLGELQFSFVAFLMGQSLESFMQWKSIVSLLLGCTSAPFQTRSQLFTKFIKVIYHQLKYGLQKENSGPETGIHALLDDSWLASDSFLHFLCKDFFALVEETSVVDGDLLSWTRKFKELLENRLGWEFQKKSAVDGIYFEEDDEYAPVVEMLDESHGEYMDKTT	failed
MDLLRGSDYVGDGAWFRAEALQEIGAFAEAPDADSYDALLRIHDRYGAMVIGHIPDMLLHAPSRGTADGSGQRAALDAHLARNGGGADIEAGPAAGTRRIRYPAPEQARLSIIVADAGDGFHLSPCIDALQASLGGCACEILAIAADGEPGDAAKLLRCDPGLGLAARFQLGAEAASGDFLLFIDSRVELAQPDGLQALLGLAARPEVGAAAPRLLRPDGEALWRGPLLIGAGEGAAALFCDAGASEAGHLNRQAVEHNPGALRLECLLMAKAFYQQIGGMDASLPTLLDTAVDLGLRIRAAGRLPVWTPFVSARRHGALDVSEPPETCDADALSLRWNGWLGQDPAHNRHLSLAADKAFQIEDVYSAQWDASFHERTRVLALPAESKATEARMASPFRILQEDCQCQLTQIPAGQRLPSAGEIERMAPDALLMSARFDSASLAWLRGYRQRRPDVLAVLMLDKLDFGAGTTHRYGHSLLQAMAGMADRVIVPTESLYRMALAFADDVRLVPDGLEEARWFELQSLRRVGKKPRVGWVGSAAEAPDLLMLSGIILATAAELDWIVLGDCPEVLKPCLAEYHAFDLSSDDYPTRLASLSLDMAVMPKAATLANETGSPLRMFEFGALGVPVICSAVGELGLSPAPVARVENDVSSWGEALRELARDAAAAAQAGDGLRAWVRENCGLKRHLPLWQQAISR	failed
MGHNAINRLQLVATLAEREVMRYTPAGVPIVNCLLSYSGQAMEAQAARQVEFSIEALGAGKMASVLDRIAPGTVLECVGFLARKHRSSKALVFHISGCNVFVKDLEHHHHHH	not failed
MGSSHHHHHHSSGENLYFQGHMDVLASGEKSRMLFERTKELFPGGVNSPVRAAVKPYPFYVKRGEGAYLYTVDGARIVDLVLAYGPLILGHKHPRVLEAVEEALARGWLYGAPGEAEVLLAEKILGYVKRGGMIRFVNSGTEATMTAIRLARGYTGRDLILKFDGCYHGSHDAVLVAAGSAAAHYGVPTSAGVPEAVARLTLVTPYNDVEALERVFAEYGDRIAGVIVEPVIANAGVIPPRREFLAALQRLSRESGALLILDEVVTGFRLGLEGAQGYFNIEGDIIVLGKIIGGGFPVGAVAGSREVMSLLTPQGKVFNAGTFNAHPITMAAGLATLKALEEEPVYSVSREAAKALEEAASEVLDRTGLPYTINRVESMMQLFIGVEEVSNAAQARKADKKFYVKLHEEMLRRGVFIAPSNLEAVFTGLPHQGEALEIAVEGLRSSLKTVLGS	not failed
MGIHQYFQSLSDLENIYRCPGKFKYQEHSVAEHSYKVTSIAQFFGAVEEDAGNEVNWRALYEKALNHDYSELFIGDIKTPVKYATTELREMLSEVEESMTKNFISREIPATFQPIYRHLLKEGKDSTLEGKILAISDKVDLLYESFGEIQKGNPENIFVEIYSEALATIYEYREMASVKYFLKEILPDMLAEKGIEKTELPQLTTEITTKALRDE	not failed
MAHHHHHHMRKIYIAGPAVFNPDMGASYYNKVRELLKKENVMPLIPTDNEATGALDIRQKNIQMIKDCDAVIADLSPFRGHEPDCGTAFEVGYAAALNKMVLTFTSDRRNMREKYGSEVDKDNLRVEGFGLPFNLMLYDGVEVFDSFESAFKYFLANFPSK	not failed
